Assay results taken from patent US20250304677A1 (VIB VZW, published 2025).

Experiments:
[1] = target: T1, human folate receptor alpha (hFRα), recombinant protein (human, UniProt P15328 25-233); experiment: competition AlphaLISA against 2MFR67-Flag3-His6 on human FRα
T1 construct: Bought recombinant proteins (His-tagged, or biotinylated via Avi-tag, e.g. AcroBiosystems FO1-H82E2, F01-H52H1); also called hFOLR1; huFOLR1
Protocol: Secondly, the variants were analysed for the capacity to compete with binding of family 3 VHH 2MFR67 to human FRα in a competition AlphaLISA, which is a homogeneous assay without wash steps. In here, human FRα biotinylated through an Avi-tag ^{∘}FO1-H82E2, AcroBiosystems) is captured on streptavidin coated Alpha Donor beads ^{∘}Perkin Elmer, Cat nr. 6760002), while the 2MFR67 is captured on anti-Flag antibody AlphaLISA acceptor beads ^{∘}Perkin Elmer, Cat nr. AL112C). Binding of 2MFR67 to the FRα leads to an energy transfer from one bead to the other, ultimately producing a fluorescent signal. To each well of white low binding 384-well microtitre plates ^{∘}F-bottom, Greiner Cat nr 781904), 5 μl of serial-diluted VHHs are mixed with 5 μl of 2.5 nM monovalent 2MFR67-Flag3-His6 and 5 μl of 15 nM biotinylated human FRα protein. After an incubation for 1 hour at room temperature, streptavidin coated Alpha Donor beads and anti-Flag AlphaLISA acceptor beads were added to a final concentration of 20 μg/mL each in a final volume of 25 μl for an incubation of 1 hour at room temperature in the dark. Interaction between beads was assessed after illumination at 680 nm and reading at 615 nm of on an Ensight instrument. Curve fitting is done in Graphpad Prism 9.0 using 4PL non-linear regression analysis.

[2] = target: T2, mouse folate receptor alpha (mFRα), recombinant protein (mouse, UniProt P35846 25-232); experiment: BLI, Avi-biotinylated FRα on streptavidin biosensors, VHH 100 nM
T2 construct: Bought recombinant proteins (e.g. biotinylated, Acro Biosystems FO1-M82E9); also called mFOLR1; Ms FOLR1
T2 sequence (P35846 25-232 limits assumed): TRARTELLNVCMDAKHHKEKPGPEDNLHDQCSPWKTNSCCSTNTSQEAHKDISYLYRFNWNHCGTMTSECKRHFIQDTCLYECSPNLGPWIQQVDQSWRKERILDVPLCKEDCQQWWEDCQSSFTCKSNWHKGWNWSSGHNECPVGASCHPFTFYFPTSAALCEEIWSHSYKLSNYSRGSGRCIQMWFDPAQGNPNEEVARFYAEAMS
Protocol: (§1) The binding of humanized variants of 2HFO42 was assessed by kinetic binding analysis to mouse and human FRα protein, biotinylated via an Avi-tag, captured on streptavidin biosensors by biolayer interferometry ^{∘}BLI), essentially as described earlier. VHHs were analysed at 100 nM concentration, and off-rates were determined using fitting of 1:1 langmurian interaction. Dissociation constants were compared to 2HFO42^{∘}Q1E, Q5V, Q108L) ^{∘}P101500004) and 2MFR67 ^{∘}Q1E, Q5V, Q108L) ^{∘}P0150000), respectively.

[3] = target: T1, human folate receptor alpha (hFRα), …; experiment: as above
Protocol: as §1

[4] = target: T2, mouse folate receptor alpha (mFRα), …; experiment: ELISA on mouse FRα, anti-VHH detection
Summary of the method: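 The EC50 was obtained from a dose-response curve. That curve came from an ELISA measuring dose-dependent binding of VHH molecules to mouse folate receptor alpha, with detection by anti-VHH.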

[5] = target: T2, mouse folate receptor alpha (mFRα), …; experiment: BLI, purified VHH
Summary of the method: (§2)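 VHH proteins carrying a flag3-His6 tag were expressed in TG-1 E. coli at 0.5 L scale. Each was purified from the periplasmic fraction on Ni Sepharose FastFlow columns, then desalted, and its purity was checked by SDS-PAGE. Biolayer interferometry was used to measure off-rates to human, mouse and cynomolgus folate receptor alpha.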

[6] = target: T1, human folate receptor alpha (hFRα), …; experiment: BLI, purified VHH
Summary of the method: as §2

[7] = target: T3, cynomolgus folate receptor alpha, recombinant (cynomolgus, UniProt A0A2K5U044 25-233); experiment: BLI, purified VHH
T3 construct: also called cyFOLR1; cynomolgus FRα
T3 sequence (A0A2K5U044 entry or part of it): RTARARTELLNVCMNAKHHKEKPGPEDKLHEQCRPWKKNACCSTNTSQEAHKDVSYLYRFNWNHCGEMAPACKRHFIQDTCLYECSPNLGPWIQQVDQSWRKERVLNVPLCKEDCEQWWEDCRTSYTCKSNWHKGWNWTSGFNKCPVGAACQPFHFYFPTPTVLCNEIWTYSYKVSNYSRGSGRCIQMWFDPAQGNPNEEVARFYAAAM
Summary of the method: as §2

[8] = target: T2, mouse folate receptor alpha (mFRα), …; experiment: BLI
Summary of the method: (§3)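 Off-rates were measured by biolayer interferometry on biotinylated human and mouse folate receptor alpha immobilised on streptavidin biosensors. koff was calculated with a 1:1 binding model. Fold change for each variant is relative to its wild-type VHH. It is wild-type koff divided by variant koff when the variant's off-rate is better, and the negative of variant koff divided by wild-type koff when it is worse.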

[9] = target: T1, human folate receptor alpha (hFRα), …; experiment: BLI
Summary of the method: as §3

[10] = target: T2, mouse folate receptor alpha (mFRα), …; experiment: BLI, VHH captured by anti-FLAG antibody on mouse Fc biosensors
Summary of the method: (§4)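 VHHs were captured with an anti-FLAG tag antibody on mouse Fc biosensors. Binding to rhesus monkey, mouse and human folate receptor alpha was then measured by biolayer interferometry. kon, koff and the equilibrium dissociation constant (KD) were calculated using a 1:1 binding model.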

[11] = target: T4, rhesus monkey folate receptor alpha, recombinant (rhesus monkey, UniProt F7BP60 25-233); experiment: as above
T4 construct: also called rhFolR1; rhesus macaque FRα
T4 sequence (F7BP60 entry or part of it): as the sequence (A0A2K5U044 entry or part of it) above
Summary of the method: as §4

[12] = target: T5, human folate receptor alpha expressed on cells (transfected HEK293T, HeLa, MCF7, MDA-MB-231) (human, UniProt P15328 25-234); experiment: flow cytometry on HeLa cells, anti-Flag detection
T5 construct: HEK293T transiently transfected with human FOLR1; also called native human FRα; cell-expressed human FOLR1
T5 sequence (P15328 25-234 limits assumed): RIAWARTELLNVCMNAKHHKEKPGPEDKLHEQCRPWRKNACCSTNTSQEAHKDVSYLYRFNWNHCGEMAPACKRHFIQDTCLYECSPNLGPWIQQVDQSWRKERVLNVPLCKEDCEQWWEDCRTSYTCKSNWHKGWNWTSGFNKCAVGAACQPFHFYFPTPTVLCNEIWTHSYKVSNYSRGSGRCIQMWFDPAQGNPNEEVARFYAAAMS
Protocol: EC₅₀ values are found in Table 9. Detection of VHH cell binding was done through anti-Flag M2 mIgG1 followed by anti-mFc-PE in flow cytometry. Results are depicted as mean fluorescence intensity ^{∘}MFI).
(§5) Off-rates of purified variants were determined to human, mouse, and cynomolgus FRα in BLI. In addition, binding of the affinity optimised variants to cell-expressed human FRα on HeLa cells was determined by flow cytometry ^{∘}FIG. 10 B).

[13] = target: T2, mouse folate receptor alpha (mFRα), …; experiment: BLI, Avi-biotinylated FRα
Protocol: (§6) Purified VHHs ^{∘}100 nM) were analysed for binding to avi-tagged biotinylated FRα protein captured on streptavidin-biosensors via BLI.
as §5

[14] = target: T1, human folate receptor alpha (hFRα), …; experiment: BLI, Avi-biotinylated FRα
Protocol: as §6, §5

[15] = target: T2, mouse folate receptor alpha (mFRα), …; experiment: BLI off-rate analysis
[16] = target: T1, human folate receptor alpha (hFRα), …; experiment: BLI off-rate analysis

T1 sequence (P15328 25-233 limits assumed): as the sequence (A0A2K5U044 entry or part of it) above, with T2I, R4W, K37R, P146A, Y171H counted along it

| Binder | IC50 [1] | koff [2] | koff [3] | koff [15] | koff [16] | further results |
| --- | --- | --- | --- | --- | --- | --- |
| P01500003: 2HF019(Q1E, Q5V, Q108L)-HIS6 (VHH, Entry includes the tag; also called 2HFO19 (P01500003); Nb19) VHH: EVQLVESGGGLVQPGGSLRVSCAASGFPFSTVYMSWVRQAPGKGLEWVSGINNDGGVIDYADSVKGRFTISRDNAKNTLYLQLNSLKPEDTALYFCARGRSFVATLSSSLRGQGTLVTVSS | 7.55 nM | 0.00052 s⁻¹ | 0.00499 s⁻¹ |  |  |  |
| P01500002 = h2 variant 2HFO42: 2HF042(Q1E, Q5V, A14P, V40A, L79Y, K83R, K105Q, Q108L)-HIS6 (VHH, Entry includes the tag) VHH: EVQLVESGGGLVQPGGSLRLSCAASGSGFSGMIMGWYRQAPGKQRELVATVTSHGTTNYADSVKGRFTISRDNAKNTVYLQMNSLRPEDTAVYYCNAHFPGIYWGQGTLVTVSS | 43.7 nM | 0.00307 s⁻¹ | 0.0132 s⁻¹ |  |  | EC50 (read off the curve) [4]: ~5 nM |
| P01500006: 2HF042(Q1E, Q5V, A14P, V40A, L79Y, K83R, Q108L)-FLAG3-HIS6 (VHH, Entry includes the tags; also called P0150006) VHH: EVQLVESGGGLVQPGGSLRLSCAASGSGFSGMIMGWYRQAPGKQRELVATVTSHGTTNYADSVKGRFTISRDNAKNTVYLQMNSLRPEDTAVYYCNAHFPGIYWGKGTLVTVSS |  | 0.00252 s⁻¹ | 0.012 s⁻¹ |  |  | koff [5]: 0.00174 s⁻¹; koff [6]: 0.00947 s⁻¹; koff [7]: 0.00158 s⁻¹; koff [8]: 0.00162 s⁻¹; nm (Fold wt) [8]: 1; koff [9]: 0.0132 s⁻¹; nm (Fold wt) [9]: 1; Kd [10]: 6.77 nM; koff [10]: 0.00249 s⁻¹; kon [10]: 367000 M⁻¹ s⁻¹; Kd [11]: 27.7 nM; koff [11]: 0.016 s⁻¹; kon [11]: 577000 M⁻¹ s⁻¹; EC50 [12]: 32.4 nM; MFI top [12]: 35300 MFI; koff [13]: 0.00189 s⁻¹; koff [14]: 0.00967 s⁻¹ |
| P01500075: P01500001[E1D, I33L, N73P]Flag3-His6-GS-NT (VHH, Entry includes tags, linker and NT(8-13)) VHH: DVQLVESGGGLVQPGGSLRLSCAASGSGFSGMLMGWYRQAPGKQRELVATVTSHGTTNYADSVKGRFTISRDPAKNTVYLQMNSLRPEDTAVYYCNAHFPGIYWGKGTLVTVSS |  |  |  | 0.000125 s⁻¹ | 0.00125 s⁻¹ |  |
| P01500077: P01500001[E1D, G28T, S30I, N73P]Flag3-His6-GS-NT (VHH, Entry includes tags, linker and NT(8-13)) VHH: DVQLVESGGGLVQPGGSLRLSCAASGSTFIGMIMGWYRQAPGKQRELVATVTSHGTTNYADSVKGRFTISRDPAKNTVYLQMNSLRPEDTAVYYCNAHFPGIYWGKGTLVTVSS |  |  |  | 0.000335 s⁻¹ | 0.00217 s⁻¹ |  |
| P01500007: 2HF042(Q1E, Q5V, A14P, V40A, L79Y, K83R, K105Q, Q108L)-FLAG3-HIS6 (VHH, Entry includes the tags) VHH: EVQLVESGGGLVQPGGSLRLSCAASGSGFSGMIMGWYRQAPGKQRELVATVTSHGTTNYADSVKGRFTISRDNAKNTVYLQMNSLRPEDTAVYYCNAHFPGIYWGQGTLVTVSS |  | 0.00292 s⁻¹ | 0.0164 s⁻¹ |  |  |  |
| P01500004: 2HF042(Q1E, Q5V, Q108L)-HIS6 (VHH, Entry includes the tag; also called 2HFO42 (P01500004); Nb42) VHH: EVQLVESGGGLVQAGGSLRLSCAASGSGFSGMIMGWYRQVPGKQRELVATVTSHGTTNYADSVKGRFTISRDNAKNTVLLQMNSLKPEDTAVYYCNAHFPGIYWGKGTLVTVSS | 39 nM | 0.00193 s⁻¹ | 0.0102 s⁻¹ |  |  | EC50 (read off the curve) [4]: ~4 nM |
| P01500073: P01500001[E1D, G28T, S30I]Flag3-His6-GS-NT (VHH, Entry includes tags, linker and NT(8-13)) VHH: DVQLVESGGGLVQPGGSLRLSCAASGSTFIGMIMGWYRQAPGKQRELVATVTSHGTTNYADSVKGRFTISRDNAKNTVYLQMNSLRPEDTAVYYCNAHFPGIYWGKGTLVTVSS |  |  |  | 0.000497 s⁻¹ | 0.00346 s⁻¹ |  |
| P01500076: P01500001[E1D, G26E, G28T, S30I, I33L]Flag3-His6-GS-NT (VHH, Entry includes tags, linker and NT(8-13)) VHH: DVQLVESGGGLVQPGGSLRLSCAASESTFIGMLMGWYRQAPGKQRELVATVTSHGTTNYADSVKGRFTISRDNAKNTVYLQMNSLRPEDTAVYYCNAHFPGIYWGKGTLVTVSS |  |  |  | 0.000164 s⁻¹ | 0.00112 s⁻¹ |  |
| P01500074: P01500001[E1D, G26E, I33L]Flag3-His6-GS-NT (VHH, Entry includes tags, linker and NT(8-13)) VHH: DVQLVESGGGLVQPGGSLRLSCAASESGFSGMLMGWYRQAPGKQRELVATVTSHGTTNYADSVKGRFTISRDNAKNTVYLQMNSLRPEDTAVYYCNAHFPGIYWGKGTLVTVSS |  |  |  | 0.000328 s⁻¹ | 0.00181 s⁻¹ |  |
